Biological target: C3 convertase complex (UniProt P01024 23-1663; P00751 260-764)
Assay: cell-based or functional assay
Throughout, for C3 convertase activity % of the control: test concentration or dose not given here.

Sequence of C3 convertase complex (P01024 23-1663, chain 1 of 2): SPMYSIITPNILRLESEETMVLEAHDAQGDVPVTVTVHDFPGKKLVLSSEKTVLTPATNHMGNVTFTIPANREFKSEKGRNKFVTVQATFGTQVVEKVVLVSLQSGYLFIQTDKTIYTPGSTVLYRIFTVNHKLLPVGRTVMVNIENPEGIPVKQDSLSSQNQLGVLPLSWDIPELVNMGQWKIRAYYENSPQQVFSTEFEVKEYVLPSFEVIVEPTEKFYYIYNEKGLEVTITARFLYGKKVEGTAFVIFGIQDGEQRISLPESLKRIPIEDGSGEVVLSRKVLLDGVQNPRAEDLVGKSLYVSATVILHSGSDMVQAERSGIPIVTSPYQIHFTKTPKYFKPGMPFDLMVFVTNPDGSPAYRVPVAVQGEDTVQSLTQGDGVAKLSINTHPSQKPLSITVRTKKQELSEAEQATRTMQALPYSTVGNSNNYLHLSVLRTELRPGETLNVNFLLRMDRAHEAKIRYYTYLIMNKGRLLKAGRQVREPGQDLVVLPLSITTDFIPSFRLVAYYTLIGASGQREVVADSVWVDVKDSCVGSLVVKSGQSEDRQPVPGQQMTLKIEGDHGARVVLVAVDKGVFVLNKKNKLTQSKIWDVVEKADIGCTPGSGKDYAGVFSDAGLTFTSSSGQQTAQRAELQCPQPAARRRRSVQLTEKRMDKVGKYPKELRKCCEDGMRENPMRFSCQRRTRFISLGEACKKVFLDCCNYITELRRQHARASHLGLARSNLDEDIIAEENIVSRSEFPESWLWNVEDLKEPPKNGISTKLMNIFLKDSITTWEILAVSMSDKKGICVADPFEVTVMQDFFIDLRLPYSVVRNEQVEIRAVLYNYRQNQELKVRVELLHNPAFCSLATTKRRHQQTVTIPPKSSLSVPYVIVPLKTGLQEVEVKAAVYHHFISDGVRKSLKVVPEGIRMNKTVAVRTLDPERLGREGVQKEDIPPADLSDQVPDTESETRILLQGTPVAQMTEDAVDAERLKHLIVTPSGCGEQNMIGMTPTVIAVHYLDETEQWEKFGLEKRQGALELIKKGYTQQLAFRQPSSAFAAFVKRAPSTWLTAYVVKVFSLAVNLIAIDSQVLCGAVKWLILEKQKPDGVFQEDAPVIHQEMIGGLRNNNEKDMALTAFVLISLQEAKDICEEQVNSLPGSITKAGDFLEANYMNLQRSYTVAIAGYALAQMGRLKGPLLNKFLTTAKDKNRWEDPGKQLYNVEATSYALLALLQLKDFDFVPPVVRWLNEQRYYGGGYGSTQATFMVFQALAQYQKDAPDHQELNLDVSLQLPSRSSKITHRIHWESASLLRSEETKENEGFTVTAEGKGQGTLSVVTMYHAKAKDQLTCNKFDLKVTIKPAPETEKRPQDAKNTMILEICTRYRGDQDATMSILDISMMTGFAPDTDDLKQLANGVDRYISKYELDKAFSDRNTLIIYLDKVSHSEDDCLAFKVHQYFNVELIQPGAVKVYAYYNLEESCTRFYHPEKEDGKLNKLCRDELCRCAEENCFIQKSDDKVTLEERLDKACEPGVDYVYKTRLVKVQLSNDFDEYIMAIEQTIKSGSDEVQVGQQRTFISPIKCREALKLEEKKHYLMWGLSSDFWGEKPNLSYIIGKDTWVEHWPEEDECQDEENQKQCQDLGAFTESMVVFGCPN
Sequence of C3 convertase complex (P00751 260-764, chain 2 of 2): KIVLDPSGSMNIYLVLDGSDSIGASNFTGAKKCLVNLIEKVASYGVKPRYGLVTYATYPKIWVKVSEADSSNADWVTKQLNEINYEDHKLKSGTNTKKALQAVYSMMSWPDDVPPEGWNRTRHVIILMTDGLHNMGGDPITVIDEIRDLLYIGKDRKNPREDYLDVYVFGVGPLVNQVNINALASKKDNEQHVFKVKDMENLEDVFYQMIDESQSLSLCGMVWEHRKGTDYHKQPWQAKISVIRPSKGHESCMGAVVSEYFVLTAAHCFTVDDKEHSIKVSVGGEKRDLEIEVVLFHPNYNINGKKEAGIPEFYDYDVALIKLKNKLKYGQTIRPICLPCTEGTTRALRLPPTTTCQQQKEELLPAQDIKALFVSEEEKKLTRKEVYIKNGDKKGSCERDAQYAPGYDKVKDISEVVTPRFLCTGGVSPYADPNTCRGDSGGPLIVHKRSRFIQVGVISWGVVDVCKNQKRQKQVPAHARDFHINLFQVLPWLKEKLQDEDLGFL

Binder | C3 convertase activity % of the control | C3 convertase activity IC50
pCEP4-1NT10-19CT20 (other) EDCNELPPRRNTEILTGSWSDQTYPEGTQAIYKCRPGYRSLGNVIMVCRKGEWVALNPLRKCQKRPCGHPGDTPFGTFTLTGGNVFEYGVKAVYTCNEGYQLLGEINYRECDTDGWTNDIPICEVVKCLPVTAPENGKIVSSAMEPDREYHFGQAVRFVCNSGYKIEGDEEMHCSDDGFWSKEKPKCVEISCKSPDVINGSPISQKIIYKENERFQYKCNMGYEYSERGDAVCTESGWRPLPSCEEKSCDNPYIPNGDYSPLRIKHRTGDEITYQCRNGFYPATRGNTAKCTSTGWIPAPRCTLKPCDYPDIKHGGLYHENMRRPYFPVAVGKYYSYYCDEHFETPSGSYWDHIHCTQDGWSPAVPCLRKCYFPYLENGYNQNHGRKFVQGKSIDVACHPGYALPKAQTTVTCMENGWSPTPRCIRVKTCSKSSIDIENGFISESQYTYALKEKAKYQCKLGYVTADGETSGSITCGKDGWSAQPTCIKSCDIPVFMNARTKNDFTWFKLNDTLDYECHDGYESNTGSTTGSIVCGYNGWSDLPICYERECELPKIDVHLVPDRKKDQYKVGEVLKFSCKPGFTIVGPNSVQCYHFGLSPDLPICKEQVQSGASGCGPPPPIDNGDITSFPLSVYAPASSVEYQCQNLYQLEGNKRITCRNGQWSEPPKCLHPCVISREIMENYNIALRWTAKQKLYSRTGESVEFVCKRGYRLSSRSHTLRTTCWDGKLEYPTCAKRGGSGHHHHHH | 1 % of the control | 6.05 µg/mL
pCEP4-1NT8-19CT20 (other) EDCNELPPRRNTEILTGSWSDQTYPEGTQAIYKCRPGYRSLGNVIMVCRKGEWVALNPLRKCQKRPCGHPGDTPFGTFTLTGGNVFEYGVKAVYTCNEGYQLLGEINYRECDTDGWTNDIPICEVVKCLPVTAPENGKIVSSAMEPDREYHFGQAVRFVCNSGYKIEGDEEMHCSDDGFWSKEKPKCVEISCKSPDVINGSPISQKIIYKENERFQYKCNMGYEYSERGDAVCTESGWRPLPSCEEKSCDNPYIPNGDYSPLRIKHRTGDEITYQCRNGFYPATRGNTAKCTSTGWIPAPRCTLKPCDYPDIKHGGLYHENMRRPYFPVAVGKYYSYYCDEHFETPSGSYWDHIHCTQDGWSPAVPCLRKCYFPYLENGYNQNYGRKFVQGKSIDVACHPGYALPKAQTTVTCMENGWSPTPRCIRVKTCSKSSIDIENGFISESQYTYALKEKAKYQCKLGYVTADGETSGSITCGKDGWSAQPTCIKSGASGCGPPPPIDNGDITSFPLSVYAPASSVEYQCQNLYQLEGNKRITCRNGQWSEPPKCLHPCVISREIMENYNIALRWTAKQKLYSRTGESVEFVCKRGYRLSSRSHTLRTTCWDGKLEYPTCAKRGGSGHHHHHH | 0 % of the control | 493 µg/mL

Reference: patent US20170190753A1 (LABORATOIRE FRANCAIS DU FRACTIONNEMENT ET DES …, published 2017)
